How the values were obtained:
[1] = target: recombinant HA (rHA), subtype H5 (A/Vietnam/1203/04(H5N1)) (influenza A virus); assay: ELISA, coated rHA
[2] = target: recombinant HA (rHA), subtype H3 (A/Perth/16/09 (H3N2)) (influenza A virus); assay: ELISA, coated rHA
[3] = target: recombinant HA (rHA), subtype H7 (A/Netherlands/219/03(H7N7)) (influenza A virus); assay: ELISA, coated rHA
[4] = target: recombinant HA (rHA), subtype H6 (A/teal/HK/W312/97(H6N1)) (influenza A virus); assay: ELISA, coated rHA
[5] = target: recombinant HA (rHA), subtype H2 (A/Swine/MO/06 (H2N3)) (influenza A virus); assay: ELISA, coated rHA
[6] = target: recombinant HA (rHA), subtype H9 (A/chicken/HK/G9/97(H9N2)) (influenza A virus); assay: ELISA, coated rHA
[7] = target: His-tagged HA subtype H3 (A/Perth/16/09 (H3N2)) (influenza A virus); assay: Octet BLI, His-tagged HA on anti-His sensors
[8] = target: His-tagged HA subtype H1 (A/California/7/04 (H1N1)) (influenza A virus); assay: Octet BLI, His-tagged HA on anti-His sensors

B1: Antibody 5 (antibody, V domains shown)
VH: QVQLQQSGPGLVKPSQTLSLTCAISGDRVSSNSAVWNWIRQSPSRGLEWLGRTYYRSKWYYDYAESVKSRIVIDPDTSKNQVSLQLNSVTPEDSAIYYCARGGHITVFGLNIDAYDIWGQGAMVTVSS
VL: DIQMTQSPSSLSASVGDRVTISCRAQSLSSYLHWYQQKPGQPPKLLIYAATTLQSGVPSRFSGSGSGTDFTLTISTFQAEDVATYYCQQSRTFGQGTKVEIK
EC50 [1]: 0.041 µg/mL | EC50 [2]: 0.03 µg/mL | EC50 [3]: 0.024 µg/mL | EC50 [4]: 0.047 µg/mL | EC50 [5]: 0.048 µg/mL | EC50 [6]: > 6 µg/mL | Kd [7]: 338 pM | koff [7]: 8.8e-05 s⁻¹ | kon [7]: 260000 M⁻¹ s⁻¹ | Kd [8]: 5 pM | koff [8]: < 5e-06 s⁻¹ | kon [8]: 1e+06 M⁻¹ s⁻¹

B2: Antibody 6 (antibody, V domains shown)
VH: QVQLQQSGPGLVKPSQTLSLTCAISGDRVSSNSAVWNWIRQSPSRGLEWLGRTYYRSKWYYDYAESVKSRIVIDPDTSKNQVSLQLNSVTPEDSAIYYCARGGHITEFGLNIDAYDIWGQGAMVTVSS
VL: DIQMTQSPSSLSASVGDRVTISCRAQSLSSYLHWYQQKPGQPPKLLIYAATTLQSGVPSRFSGSGSGTDFTLTISTFQAEDVATYYCQQSRTFGQGTKVEIK
EC50 [1]: 0.256 µg/mL | EC50 [2]: 0.064 µg/mL | EC50 [3]: 0.116 µg/mL | EC50 [4]: 0.214 µg/mL | EC50 [5]: 0.213 µg/mL | EC50 [6]: > 6 µg/mL

B3: Antibody 8 (antibody, V domains shown)
VH: QVQLQQSGPGLVKPSQTLSLTCVISGDTVSSNRATWNWMRQSPLRGLEWLGRTYYRSKWYNDYAVSVKSRVVINPDTSKNQVSLQLNTVTPDDSGVYFCARGGHITVFGVNIDAFDIWGLGTKVTVSS
VL: DIQMTQSPSSLSASVGDRVTISCRASQRLNSYLHWYQQTPGQAPKLLIYATSTLQSGVSPRFSGSGSGTDFTLTISSLQPEDVATYYCQLSRTFGHGTKVEIK
EC50 [1]: 0.044 µg/mL | EC50 [2]: 0.067 µg/mL | EC50 [3]: 0.015 µg/mL | EC50 [4]: 0.091 µg/mL | EC50 [5]: 0.058 µg/mL | EC50 [6]: > 6 µg/mL

B4: Antibody 10 (antibody, V domains shown)
VH: QVQLQQSGPGLVKPSQTLSLTCAISGDSVSSNSATWNWIRQSPSRGLEWLGRTYYRSKWYNDYADFLKRRITINPDTSNNEVSLRLTSVTPDDTALYYCARGGHITVFGVNIDAFDVWGQGTMVTVSS
VL: DIQMTQSPSSLSASVGDRITISCRTSQSLRSYLHWYQQKPGKAPKLLIYASSTLQSGVPSRFSGSGSGTDFTLTISNLQPEDFATYYCQLSRTFGQGTKVEIK
EC50 [1]: 0.058 µg/mL | EC50 [2]: 0.049 µg/mL | EC50 [3]: 0.034 µg/mL | EC50 [4]: 0.097 µg/mL | EC50 [5]: 0.075 µg/mL | EC50 [6]: 2.7 µg/mL

— patent publication US20160257732A1
